Reference: FireProtDB (doi:10.1006/jmbi.1998.1906)
Several values for one entry are separate records, joined by “and”; a condition that tells them apart may be missing. Equal entries are not always repeated.

B1: Lysozyme C, P61626 (parent)
chain: MKALIVLGLVLLSVTVQGKVFERCELARTLKRLGMDGYRGISLANWMCLAKWESGYNTRATNYNAGDRSTDYGIFQINSRYWCNDGKTPGAVNACHLSCSALLQDNIADAVACAKRVVRDPQGIRAWVAWRNRCQNRDVRQYVQGCGV

Variants of: B1
Conditions: Homo sapiens; pH 2.7; 49.2 °C; Thermal; DSC; glycine 0.05 M; reversible: yes; structure 1LZ1; whole UniProt chain shown

Variant | ddG of mutation (higher = less stable) [kcal/mol] | heat capacity change of unfolding [kcal/mol/K]
MKALIVLGLVLLSVTVQGKVFERCELARTLKRLGMDGYRGISLANWMCLAKWESGYNTRATNYNAGDRSTDYGVFQINSRYWCNDGKTPGAVNACHLSCSALLQDNIADAVACAKRVVRDPQGIRAWVAWRNRCQNRDVRQYVQGCGV [I74V] | 1.34 | 1.29
MKALIVLGLVLLSVTVQGKVFERCELARTLKRLGMDGYRGISLANWMCLAKWESGYNTRATNYNAGDRSTDYGIFQINSRYWCNDGKTPGAVNACHLSCSALLQDNIADAVACAKRVVRDPQGIRAWVAWRNRCQNRDVRQYAQGCGV [V143A] | 1.6 | 1.56
MKALIVLGLVLLSVTVQGKVFERCELARTLKRLGMDGYRGISLANWMCLAKWESGYNTRATNYNAGDRSTDYGIFQINSRYWCNDGKTPGAVNACHLSCSALLQDNIADAVACAKRVVRDPQGVRAWVAWRNRCQNRDVRQYVQGCGV [I124V] | 0.98 | 1.72
MKALIVLGLVLLSVTVQGKAFERCELARTLKRLGMDGYRGISLANWMCLAKWESGYNTRATNYNAGDRSTDYGIFQINSRYWCNDGKTPGAVNACHLSCSALLQDNIADAVACAKRVVRDPQGIRAWVAWRNRCQNRDVRQYVQGCGV [V20A] | 1.51 | 1.44
MKALIVLGLVLLSVTVQGKVFERCELARTLKRLGMDGYRGISLANWMCLAKWESGYNTRATNYNAGDRSTDYGIFQINSRYWCNDGKTPGAVNACHLSCSALLQDNIADAVACAKRVVRDPQGIRAWVAWRNRCQNRDARQYVQGCGV [V139A] | 1.75 | 1.37

Same assay, conditions: Homo sapiens; pH 2.7; Thermal; DSC; glycine 0.05 M; reversible: yes; structure 1LZ1; whole UniProt chain shown

Variant | Tm | change of melting temperature, mutant - wild type (higher = more stable) | heat capacity change of unfolding [kcal/mol/K] | unfolding enthalpy (calorimetric) | unfolding enthalpy (van 't Hoff) [kcal/mol]
MKALIVLGLVLLSVTVQGKVFERCELARTLKRLGMDGYRGISLANWMCLAKWESGYNTRATNYNAGDRSTDYGVFQINSRYWCNDGKTPGAVNACHLSCSALLQDNIADAVACAKRVVRDPQGIRAWVAWRNRCQNRDVRQYVQGCGV [I74V] | 42.9 °C | -6.3 °C | 1.29 | 71.8 kcal/mol | 
MKALIVLGLVLLSVTVQGKVFERCELARTLKRLGMDGYRGISLANWMCLAKWESGYNTRATNYNAGDRSTDYGIFQINSRYWCNDGKTPGAVNACHLSCSALLQDNIADAVACAKRVVRDPQGIRAWVAWRNRCQNRDVRQYAQGCGV [V143A] | 42.2 °C | -7 °C | 1.56 | 78 kcal/mol | 
MKALIVLGLVLLSVTVQGKVFERCELARTLKRLGMDGYRGISLANWMCLAKWESGYNTRATNYNAGDRSTDYGIFQINSRYWCNDGKTPGAVNACHLSCSALLQDNIADAVACAKRVVRDPQGVRAWVAWRNRCQNRDVRQYVQGCGV [I124V] | 44.5 °C and 43.6 °C | -4.7 °C and -5.6 °C | 1.72 | 70.3 kcal/mol and 59.8 kcal/mol | 66.7
MKALIVLGLVLLSVTVQGKAFERCELARTLKRLGMDGYRGISLANWMCLAKWESGYNTRATNYNAGDRSTDYGIFQINSRYWCNDGKTPGAVNACHLSCSALLQDNIADAVACAKRVVRDPQGIRAWVAWRNRCQNRDVRQYVQGCGV [V20A] | 41.3 °C | -7.9 °C | 1.44 | 65.5 kcal/mol | 
MKALIVLGLVLLSVTVQGKVFERCELARTLKRLGMDGYRGISLANWMCLAKWESGYNTRATNYNAGDRSTDYGIFQINSRYWCNDGKTPGAVNACHLSCSALLQDNIADAVACAKRVVRDPQGIRAWVAWRNRCQNRDARQYVQGCGV [V139A] | 39.9 °C | -9.3 °C | 1.37 | 65.3 kcal/mol | 

Same assay, conditions: Homo sapiens; pH 2.8; Thermal; DSC; glycine 0.05 M; reversible: yes; structure 1LZ1; whole UniProt chain shown

Variant | Tm [°C] | unfolding enthalpy (calorimetric) [kcal/mol] | unfolding enthalpy (van 't Hoff) [kcal/mol]
MKALIVLGLVLLSVTVQGKVFERCELARTLKRLGMDGYRGISLANWMCLAKWESGYNTRATNYNAGDRSTDYGVFQINSRYWCNDGKTPGAVNACHLSCSALLQDNIADAVACAKRVVRDPQGIRAWVAWRNRCQNRDVRQYVQGCGV [I74V] | 45.3 | 66.7 | 71.1

Same assay, conditions: Homo sapiens; pH 3; Thermal; DSC; glycine 0.05 M; reversible: yes; structure 1LZ1; whole UniProt chain shown

Variant | Tm [°C] | unfolding enthalpy (calorimetric) [kcal/mol] | unfolding enthalpy (van 't Hoff) [kcal/mol]
MKALIVLGLVLLSVTVQGKVFERCELARTLKRLGMDGYRGISLANWMCLAKWESGYNTRATNYNAGDRSTDYGVFQINSRYWCNDGKTPGAVNACHLSCSALLQDNIADAVACAKRVVRDPQGIRAWVAWRNRCQNRDVRQYVQGCGV [I74V] | 48.2 | 69.4 | 73
MKALIVLGLVLLSVTVQGKVFERCELARTLKRLGMDGYRGISLANWMCLAKWESGYNTRATNYNAGDRSTDYGIFQINSRYWCNDGKTPGAVNACHLSCSALLQDNIADAVACAKRVVRDPQGVRAWVAWRNRCQNRDVRQYVQGCGV [I124V] | 49.5 | 70.6 | 75.6
MKALIVLGLVLLSVTVQGKVFERCELARTLKRLGMDGYRGISLANWMCLAKWESGYNTRATNYNAGDRSTDYGIFQINSRYWCNDGKTPGAVNACHLSCSALLQDNIADAVACAKRVVRDPQGIRAWVAWRNRCQNRDARQYVQGCGV [V139A] | 47 | 61.5 | 67.5

Same assay, conditions: Homo sapiens; pH 3.1; Thermal; DSC; glycine 0.05 M; reversible: yes; structure 1LZ1; whole UniProt chain shown

Variant | Tm [°C] | unfolding enthalpy (calorimetric) [kcal/mol] | unfolding enthalpy (van 't Hoff) [kcal/mol]
MKALIVLGLVLLSVTVQGKVFERCELARTLKRLGMDGYRGISLANWMCLAKWESGYNTRATNYNAGDRSTDYGVFQINSRYWCNDGKTPGAVNACHLSCSALLQDNIADAVACAKRVVRDPQGIRAWVAWRNRCQNRDVRQYVQGCGV [I74V] | 50.5 | 74.4 | 78.2
MKALIVLGLVLLSVTVQGKVFERCELARTLKRLGMDGYRGISLANWMCLAKWESGYNTRATNYNAGDRSTDYGIFQINSRYWCNDGKTPGAVNACHLSCSALLQDNIADAVACAKRVVRDPQGVRAWVAWRNRCQNRDVRQYVQGCGV [I124V] | 51.3 | 73.7 | 78
MKALIVLGLVLLSVTVQGKAFERCELARTLKRLGMDGYRGISLANWMCLAKWESGYNTRATNYNAGDRSTDYGIFQINSRYWCNDGKTPGAVNACHLSCSALLQDNIADAVACAKRVVRDPQGIRAWVAWRNRCQNRDVRQYVQGCGV [V20A] | 48.3 | 65.1 | 70.6

Same assay, conditions: Homo sapiens; pH 2.72; Thermal; DSC; glycine 0.05 M; reversible: yes; structure 1LZ1; whole UniProt chain shown

Variant | Tm [°C] | unfolding enthalpy (calorimetric) [kcal/mol] | unfolding enthalpy (van 't Hoff) [kcal/mol]
MKALIVLGLVLLSVTVQGKVFERCELARTLKRLGMDGYRGISLANWMCLAKWESGYNTRATNYNAGDRSTDYGIFQINSRYWCNDGKTPGAVNACHLSCSALLQDNIADAVACAKRVVRDPQGIRAWVAWRNRCQNRDVRQYAQGCGV [V143A] | 42.8 | 67.2 | 70.6
MKALIVLGLVLLSVTVQGKVFERCELARTLKRLGMDGYRGISLANWMCLAKWESGYNTRATNYNAGDRSTDYGIFQINSRYWCNDGKTPGAVNACHLSCSALLQDNIADAVACAKRVVRDPQGIRAWVAWRNRCQNRDARQYVQGCGV [V139A] | 40.3 | 53.6 | 56.9

Same assay, conditions: Homo sapiens; pH 2.87; Thermal; DSC; glycine 0.05 M; reversible: yes; structure 1LZ1; whole UniProt chain shown

Variant | Tm [°C] | unfolding enthalpy (calorimetric) [kcal/mol] | unfolding enthalpy (van 't Hoff) [kcal/mol]
MKALIVLGLVLLSVTVQGKVFERCELARTLKRLGMDGYRGISLANWMCLAKWESGYNTRATNYNAGDRSTDYGIFQINSRYWCNDGKTPGAVNACHLSCSALLQDNIADAVACAKRVVRDPQGIRAWVAWRNRCQNRDVRQYAQGCGV [V143A] | 45.9 | 72.2 | 76.3

Same assay, conditions: Homo sapiens; pH 3.02; Thermal; DSC; glycine 0.05 M; reversible: yes; structure 1LZ1; whole UniProt chain shown

Variant | Tm [°C] | unfolding enthalpy (calorimetric) [kcal/mol] | unfolding enthalpy (van 't Hoff) [kcal/mol]
MKALIVLGLVLLSVTVQGKVFERCELARTLKRLGMDGYRGISLANWMCLAKWESGYNTRATNYNAGDRSTDYGIFQINSRYWCNDGKTPGAVNACHLSCSALLQDNIADAVACAKRVVRDPQGIRAWVAWRNRCQNRDVRQYAQGCGV [V143A] | 47.9 | 76.3 | 78
MKALIVLGLVLLSVTVQGKAFERCELARTLKRLGMDGYRGISLANWMCLAKWESGYNTRATNYNAGDRSTDYGIFQINSRYWCNDGKTPGAVNACHLSCSALLQDNIADAVACAKRVVRDPQGIRAWVAWRNRCQNRDVRQYVQGCGV [V20A] | 47.3 | 62 | 67.5

Same assay, conditions: Homo sapiens; pH 3.17; Thermal; DSC; glycine 0.05 M; reversible: yes; structure 1LZ1; whole UniProt chain shown

Variant | Tm [°C] | unfolding enthalpy (calorimetric) [kcal/mol] | unfolding enthalpy (van 't Hoff) [kcal/mol]
MKALIVLGLVLLSVTVQGKVFERCELARTLKRLGMDGYRGISLANWMCLAKWESGYNTRATNYNAGDRSTDYGIFQINSRYWCNDGKTPGAVNACHLSCSALLQDNIADAVACAKRVVRDPQGIRAWVAWRNRCQNRDVRQYAQGCGV [V143A] | 50.8 | 81.1 | 82.8

Same assay, conditions: Homo sapiens; pH 2.71; Thermal; DSC; glycine 0.05 M; reversible: yes; structure 1LZ1; whole UniProt chain shown

Variant | Tm [°C] | unfolding enthalpy (calorimetric) [kcal/mol] | unfolding enthalpy (van 't Hoff) [kcal/mol]
MKALIVLGLVLLSVTVQGKAFERCELARTLKRLGMDGYRGISLANWMCLAKWESGYNTRATNYNAGDRSTDYGIFQINSRYWCNDGKTPGAVNACHLSCSALLQDNIADAVACAKRVVRDPQGIRAWVAWRNRCQNRDVRQYVQGCGV [V20A] | 41.4 | 54.5 | 60.3

Same assay, conditions: Homo sapiens; pH 2.86; Thermal; DSC; glycine 0.05 M; reversible: yes; structure 1LZ1; whole UniProt chain shown

Variant | Tm [°C] | unfolding enthalpy (calorimetric) [kcal/mol] | unfolding enthalpy (van 't Hoff) [kcal/mol]
MKALIVLGLVLLSVTVQGKVFERCELARTLKRLGMDGYRGISLANWMCLAKWESGYNTRATNYNAGDRSTDYGIFQINSRYWCNDGKTPGAVNACHLSCSALLQDNIADAVACAKRVVRDPQGIRAWVAWRNRCQNRDARQYVQGCGV [V139A] | 43.6 | 57.9 | 62.7

Same assay, conditions: Homo sapiens; pH 3.14; Thermal; DSC; glycine 0.05 M; reversible: yes; structure 1LZ1; whole UniProt chain shown

Variant | Tm [°C] | change of melting temperature, mutant - wild type (higher = more stable) [°C] | unfolding enthalpy (calorimetric) [kcal/mol] | unfolding enthalpy (van 't Hoff) [kcal/mol]
MKALIVLGLVLLSVTVQGKVFERCELARTLKRLGMDGYRGISLANWMCLAKWESGYNTRATNYNAGDRSTDYGIFQINSRYWCNDGKTPGAVNACHLSCSALLQDNIADAVACAKRVVRDPQGIRAWVAWRNRCQNRDARQYVQGCGV [V139A] | 50.1 | -7.7 | 67.2 | 72.5
